Source: article PMC9929924, “Phosphorylation of the receptor protein Pex5p modulates import of proteins into peroxisomes” (Biological Chemistry, 2022)
Numbering of substitutions follows the chain as printed. Names may count otherwise. “And” between values parts separate entries of the source, which are not always exact repeats. Equal entries are not always repeated. Ends that are not written are not given here. Peptide text beside a SMILES is read from it. * marks the point of attachment. FITC = O=C1OC2(c3ccc(O)cc3Oc3cc(O)ccc32)c2ccc(NC(=S)*)cc21

T1: Pex5p-S507/523D, recombinant His6-tagged phospho-mimicking mutant (S. cerevisiae, UniProt P35056 1-612, S507D | S523D)
T1 sequence: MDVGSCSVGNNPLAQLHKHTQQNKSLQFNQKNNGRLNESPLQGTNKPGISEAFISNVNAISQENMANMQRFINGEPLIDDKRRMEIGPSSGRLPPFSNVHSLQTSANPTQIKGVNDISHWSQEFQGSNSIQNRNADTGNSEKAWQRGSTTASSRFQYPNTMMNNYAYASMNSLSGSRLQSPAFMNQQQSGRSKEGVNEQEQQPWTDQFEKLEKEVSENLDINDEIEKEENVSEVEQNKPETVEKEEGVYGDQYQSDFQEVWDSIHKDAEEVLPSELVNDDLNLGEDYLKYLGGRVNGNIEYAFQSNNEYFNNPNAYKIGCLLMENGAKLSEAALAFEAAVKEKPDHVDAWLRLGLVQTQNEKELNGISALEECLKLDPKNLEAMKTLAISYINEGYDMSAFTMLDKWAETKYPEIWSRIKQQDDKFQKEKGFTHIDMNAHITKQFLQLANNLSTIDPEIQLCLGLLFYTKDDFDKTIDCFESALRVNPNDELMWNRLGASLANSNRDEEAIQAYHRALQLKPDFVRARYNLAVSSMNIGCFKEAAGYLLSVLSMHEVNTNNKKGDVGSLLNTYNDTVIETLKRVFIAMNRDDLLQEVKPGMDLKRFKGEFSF

T2: Pex5p wildtype, recombinant His6-tagged (HisPex5p) (S. cerevisiae, UniProt P35056 1-612)
T2 chain: T1 sequence with D507S, D523S

B1: Pex5p wildtype, recombinant His6-tagged (HisPex5p) (natural protein, S. cerevisiae, UniProt P35056 1-612, looked up)
chain: T1 sequence with D507S, D523S
notes: Pex5p, PTS1 receptor of Saccharomyces cerevisiae, UniProtKB P35056, full length; No cleavage of the His tag is described; the native MS mass of the monomer is printed as 71.459 kDa; also called Pex5p^WT; source: E. coli BL21 RIL (DE3), purified (Ni-NTA, MonoQ anion exchange, SEC)
B2: Pex5p-S507/523D, recombinant His6-tagged phospho-mimicking mutant (natural protein, S. cerevisiae, UniProt P35056 1-612, looked up)
chain: T1 sequence
notes: Pex5p, PTS1 receptor of Saccharomyces cerevisiae, UniProtKB P35056, full length, with S507D and S523D; No cleavage of the His tag is described; the native MS mass of the monomer is printed as 71.515 kDa; also called Pex5p^2D; Pex5p-S507D/523D; source: E. coli BL21 RIL (DE3), purified (Ni-NTA, MonoQ anion exchange, SEC)
B3: Pcs60p, peroxisomal oxalyl-CoA synthetase, recombinant (natural protein, S. cerevisiae, UniProt P38137 1-543, looked up)
chain: MTSAATVTASFNDTFSVSDNVAVIVPETDTQVTYRDLSHMVGHFQTMFTNPNSPLYGAVFRQDTVAISMRNGLEFIVAFLGATMDAKIGAPLNPNYKEKEFNFYLNDLKSKAICVPKGTTKLQSSEILKSASTFGCFIVELAFDATRFRVEYDIYSPEDNYKRVIYRSLNNAKFVNTNPVKFPGFARSSDVALILHTSGTTSTPKTVPLLHLNIVRSTLNIANTYKLTPLDRSYVVMPLFHVHGLIGVLLSTFRTQGSVVVPDGFHPKLFWDQFVKYNCNWFSCVPTISMIMLNMPKPNPFPHIRFIRSCSSALAPATFHKLEKEFNAPVLEAYAMTEASHQMTSNNLPPGKRKPGTVGQPQGVTVVILDDNDNVLPPGKVGEVSIRGENVTLGYANNPKANKENFTKRENYFRTGDQGYFDPEGFLVLTGRIKELINRGGEKISPIELDGIMLSHPKIDEAVAFGVPDDMYGQVVQAAIVLKKGEKMTYEELVNFLKKHLASFKIPTKVYFVDKLPKTATGKIQRRVIAETFAKSSRNKSKL
notes: Pcs60p, peroxisomal oxalyl-CoA synthetase of S. cerevisiae, a PTS1-protein; GST tag removed with thrombin; native MS mass of the monomer printed as 60.632 kDa; also called wildtype Pcs60p; GSTPcs60p (before cleavage); source: E. coli BL21 RIL (DE3), purified (GSTrap, thrombin cleavage, SEC); not shown: GST, N-terminal, cleaved

Tests used:
Pex5p^2D = biological target: T3, Pex5p^2D (Saccharomyces cerevisiae, UniProt P35056, S507D/S523D); assay: biochemical; assay type: binding
T3 construct: 10 μM full-length Pex5p^WT and Pex5p^2D mutant as a sample in the cell; made in house; host or cells: E. coli BL21 RIL (DE3)
Description: The elution of proteins was monitored at 280 nm.

[1] = biological target: the molecule itself; assay: native MS; single purified proteins in 200 mM ammonium acetate pH 6.8; collision energy 100 V
[2] = biological target: B1; assay: fluorescence polarisation; fluorescence anisotropy; 10 nM FITC-labelled Idp3p peptide, serial dilutions of Pex5p variant 160 nM to 38 µM; 50 mM HEPES pH 7.5, 150 mM NaCl; one-site binding-saturation fit; details: both partners purified
[3] = biological target: B1; assay: ITC; MicroCal VP-ITC, 25 °C; 10 µM Pex5p variant in the cell, 100 µM Pcs60p as titration ligand, 30 injections of 10 µl; 50 mM HEPES pH 7.5, 150 mM NaCl; details: both partners purified
[4] = biological target: B2; assay: as above; details: both partners purified
[5] = biological target: T1, Pex5p-S507/523D, recombinant …; assay: ITC; representative single titration
[6] = biological target: T2, Pex5p wildtype, recombinant His6-tagged …; assay: ITC; representative single titration
[7] = biological target: B1; assay: native MS; Pex5p variant (7.5 µM) mixed with Pcs60p (5 µM), 5 min on ice; 200 mM ammonium acetate pH 6.8; collision energy 100 V; details: both partners purified
[8] = biological target: B2; assay: as above; details: both partners purified

Molecule: CC(C)C[C@H](NC(=O)[C@H](CCCNC(=N)N)NC(=O)[C@H](CO)NC(=O)[C@H](CO)NC(=O)[C@H](CCCNC(=N)N)NC(=O)[C@H](CCCCN)NC(=O)[C@@H](NC(=O)[C@H](CCCNC(=N)N)NC(=O)[C@H](C)NC(=O)[C@H](Cc1ccc(O)cc1)NC(=S)Nc1ccc2c(c1)C(=O)OC21c2ccc(O)cc2Oc2cc(O)ccc21)C(C)C)C(=O)O [Lys1p peptide] ({FITC}-YARVKRSSRL-OH)
- Kd (Pex5p^2D): 3690 ± 1580 nM

Molecule: CC(C)C[C@H](NC(=O)[C@H](CCCCN)NC(=O)[C@H](C)NC(=O)[C@H](CCCCN)NC(=O)[C@H](CCCNC(=N)N)NC(=O)[C@H](CCCCN)NC(=O)[C@H](CC(N)=O)NC(=O)[C@H](CCC(=O)O)NC(=O)[C@H](CC(N)=O)NC(=O)[C@H](Cc1ccc(O)cc1)NC(=S)Nc1ccc2c(c1)C(=O)OC21c2ccc(O)cc2Oc2cc(O)ccc21)C(=O)O [Cat2p peptide] ({FITC}-YNENKRKAKL-OH)
- Kd (Pex5p^2D): 897 nM

Molecule: B1
- stoichiometry N [1]: 2

Molecule: B2
- stoichiometry N [1]: 2

Molecule: {FITC}-YNEDKKGMCKL [Idp3p nonapeptide, FITC-YNEDKKGMCKL]
- Kd [2]: 5540 nM

Molecule: B3
- Kd [3]: 17.4 nM
- Kd [4]: 338 nM
- Kd [5]: 271 nM
- Kd [6]: 13 nM
- stoichiometry N [7]: 1 Pcs60p per Pex5p (2:2 receptor-cargo complex) and 1 Pcs60p per Pex5p and 2 Pcs60p per Pex5p (1:2 receptor-cargo complex)
- stoichiometry N [8]: 1 Pcs60p per Pex5p and 2 Pcs60p per Pex5p (1:2 receptor-cargo complex) and 1 Pcs60p per Pex5p (2:2 receptor-cargo complex)
